# Patent publication US20230391876A1 (HANALL BIOPHARMA, published 2023)
# Residue numbers refer to the chain shown, from its start. In names and notes the source's numbering stands.
# B1: HL161AN variant No. 11 (LC:N25S, HC:C32Y Q82E) (antibody, V domains shown)
# VL: SYVLTQPPSVSVAPGQTARITCGGSNIGSTSVHWYQQKPGQAPVLVVHDDSDRPSGIPERFSGSNSGNTATLTISRVEAGDEADYYCQVRDSSSDHVIFGGGTKLTVLGQPKAAPSVTL
# VH: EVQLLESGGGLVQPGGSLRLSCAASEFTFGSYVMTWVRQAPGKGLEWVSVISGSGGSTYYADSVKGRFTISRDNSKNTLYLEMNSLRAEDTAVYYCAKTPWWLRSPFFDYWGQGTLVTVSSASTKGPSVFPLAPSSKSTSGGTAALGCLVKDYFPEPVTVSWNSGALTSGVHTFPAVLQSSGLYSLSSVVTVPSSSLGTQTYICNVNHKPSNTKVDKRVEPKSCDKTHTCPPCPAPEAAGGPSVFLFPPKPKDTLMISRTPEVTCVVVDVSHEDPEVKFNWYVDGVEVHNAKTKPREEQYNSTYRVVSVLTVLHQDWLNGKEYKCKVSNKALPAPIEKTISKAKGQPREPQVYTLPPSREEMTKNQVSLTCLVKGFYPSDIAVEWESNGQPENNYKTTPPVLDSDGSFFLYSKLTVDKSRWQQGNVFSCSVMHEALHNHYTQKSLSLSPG
# notes: also called HL161ANSYE; copies: 2 + 2
# B2: HL161AN variant No. 19 (LC:N25Q, HC:C32S Q82E) (antibody, V domains shown)
# VL: B1 VL with S25Q
# VH: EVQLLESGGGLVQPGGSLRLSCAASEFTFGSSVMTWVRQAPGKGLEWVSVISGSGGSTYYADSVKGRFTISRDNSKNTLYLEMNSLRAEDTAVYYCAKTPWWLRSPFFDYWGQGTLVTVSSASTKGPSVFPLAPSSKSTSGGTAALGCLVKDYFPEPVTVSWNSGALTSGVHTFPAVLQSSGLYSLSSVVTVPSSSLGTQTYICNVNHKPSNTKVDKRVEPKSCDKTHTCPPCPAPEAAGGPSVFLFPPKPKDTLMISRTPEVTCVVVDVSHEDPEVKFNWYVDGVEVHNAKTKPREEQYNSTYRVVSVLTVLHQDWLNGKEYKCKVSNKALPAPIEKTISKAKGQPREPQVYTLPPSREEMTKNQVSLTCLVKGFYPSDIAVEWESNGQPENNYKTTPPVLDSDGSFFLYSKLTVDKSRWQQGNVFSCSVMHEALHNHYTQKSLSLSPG
# notes: also called HL161ANQE; copies: 2 + 2
# B3: HL161AN variant No. 12 (LC:N25Q, HC:C32S) (antibody, V domains shown)
# VL: B1 VL with S25Q
# VH: EVQLLESGGGLVQPGGSLRLSCAASEFTFGSSVMTWVRQAPGKGLEWVSVISGSGGSTYYADSVKGRFTISRDNSKNTLYLQMNSLRAEDTAVYYCAKTPWWLRSPFFDYWGQGTLVTVSS
# notes: also called HL161ANQ; #12 (HL161ANQ)
# B4: HL161AN variant No. 13 (LC:N25Q, HC:C32Y) (antibody, V domains shown)
# VL: B1 VL with S25Q
# VH: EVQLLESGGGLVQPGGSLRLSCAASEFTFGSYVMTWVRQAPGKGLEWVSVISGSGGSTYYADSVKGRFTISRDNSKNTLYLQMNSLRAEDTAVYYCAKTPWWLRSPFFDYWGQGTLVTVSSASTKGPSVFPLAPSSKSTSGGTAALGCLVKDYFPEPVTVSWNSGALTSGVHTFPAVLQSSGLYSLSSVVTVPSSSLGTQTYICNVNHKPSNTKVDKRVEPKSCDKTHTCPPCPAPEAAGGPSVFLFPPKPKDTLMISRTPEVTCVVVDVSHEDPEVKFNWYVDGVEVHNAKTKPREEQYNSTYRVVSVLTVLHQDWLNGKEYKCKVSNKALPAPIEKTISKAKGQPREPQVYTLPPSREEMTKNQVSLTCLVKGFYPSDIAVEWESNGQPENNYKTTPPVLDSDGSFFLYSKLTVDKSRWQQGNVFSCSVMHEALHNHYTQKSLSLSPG
# notes: also called HL161ANQY; copies: 2 + 2
# B5: HL161AN variant No. 22 (LC:N25Q, HC:C32Y Q82E) (antibody, V domains shown)
# VL: B1 VL with S25Q
# VH: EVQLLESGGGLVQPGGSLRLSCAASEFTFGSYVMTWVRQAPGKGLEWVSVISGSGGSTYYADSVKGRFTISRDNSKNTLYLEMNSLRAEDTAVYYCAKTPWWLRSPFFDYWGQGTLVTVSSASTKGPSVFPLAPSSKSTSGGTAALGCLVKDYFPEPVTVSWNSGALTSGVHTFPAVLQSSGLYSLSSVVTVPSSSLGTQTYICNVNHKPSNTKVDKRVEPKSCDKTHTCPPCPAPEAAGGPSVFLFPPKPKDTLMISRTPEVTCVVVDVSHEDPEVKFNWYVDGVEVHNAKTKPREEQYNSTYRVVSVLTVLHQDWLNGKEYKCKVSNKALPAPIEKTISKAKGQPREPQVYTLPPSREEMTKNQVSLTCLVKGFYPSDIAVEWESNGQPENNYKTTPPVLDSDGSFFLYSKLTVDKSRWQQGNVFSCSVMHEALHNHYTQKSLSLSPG
# notes: also called HL161ANQYE; copies: 2 + 2
# B6: HL161AN variant No. 8 (LC:N25S, HC:C32S Q82E) (antibody, V domains shown)
# VL: B1 VL
# VH: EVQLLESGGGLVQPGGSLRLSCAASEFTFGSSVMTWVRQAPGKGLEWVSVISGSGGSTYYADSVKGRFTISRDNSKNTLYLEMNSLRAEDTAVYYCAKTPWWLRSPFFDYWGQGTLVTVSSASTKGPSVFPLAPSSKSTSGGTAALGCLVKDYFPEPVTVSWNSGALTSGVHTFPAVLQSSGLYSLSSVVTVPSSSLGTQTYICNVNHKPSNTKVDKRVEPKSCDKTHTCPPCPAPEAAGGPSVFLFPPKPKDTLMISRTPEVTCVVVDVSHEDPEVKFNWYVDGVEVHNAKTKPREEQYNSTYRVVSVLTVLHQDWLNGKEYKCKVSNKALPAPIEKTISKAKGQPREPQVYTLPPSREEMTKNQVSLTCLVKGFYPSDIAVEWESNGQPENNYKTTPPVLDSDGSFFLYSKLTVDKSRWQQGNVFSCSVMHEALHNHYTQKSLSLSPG
# notes: also called HL161ANSE; copies: 2 + 2
# B7: HL161AN variant No. 1 (LC:N25S, HC:C32S) (antibody, V domains shown)
# VL: B1 VL
# VH: B3 VH
# notes: also called HL161ANS; #1 (HL161ANS)
# B8: HL161AN variant No. 21 (LC:N25Q, HC:C32Y Q82T) (antibody, human IgG1, V domains shown)
# VL: B1 VL with S25Q
# VH: B3 VH with S32Y, Q82T
# notes: Variable domains only
# B9: HL161AN variant No. 2 (LC:N25S, HC:C32Y) (antibody, V domains shown)
# VL: B1 VL
# VH: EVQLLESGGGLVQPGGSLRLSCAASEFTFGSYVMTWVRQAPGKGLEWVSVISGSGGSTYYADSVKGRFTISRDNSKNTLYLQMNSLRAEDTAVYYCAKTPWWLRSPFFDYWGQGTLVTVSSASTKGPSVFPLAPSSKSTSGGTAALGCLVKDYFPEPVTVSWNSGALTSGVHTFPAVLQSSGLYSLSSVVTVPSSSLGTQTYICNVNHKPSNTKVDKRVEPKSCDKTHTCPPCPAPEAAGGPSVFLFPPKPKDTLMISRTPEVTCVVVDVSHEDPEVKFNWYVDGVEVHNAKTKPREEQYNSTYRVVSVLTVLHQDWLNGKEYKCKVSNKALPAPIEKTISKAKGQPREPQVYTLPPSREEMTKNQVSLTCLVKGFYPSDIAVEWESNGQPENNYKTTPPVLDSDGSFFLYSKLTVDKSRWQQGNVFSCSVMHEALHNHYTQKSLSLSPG
# notes: also called HL161ANSY; copies: 2 + 2
# B10: HL161AN (antibody, human IgG1, V domains shown)
# VL: B1 VL with S25N
# VH: B3 VH with S32C
# notes: also called HL161AN RS
# Target: T1, shFcRn (soluble human FcRn) (human, UniProt P55899 24-297; P61769 21-119)
# T1 construct: extracellular domain; Printed only as 'soluble human FcRn'; also called hFcRn (immobilized on a chip)
# Test: SPR, hFcRn immobilized on chip, pH 6.0
# Protocol: (§1) Kinetic analysis was performed using a 1:1 Langmuir binding model, and the average KD value was obtained by repeating the analysis 6 times in each condition of pH 6.0 and pH 7.4.
# (§2) Chip activation was performed under EDAC/NHS 0.5×, 30 μL/min, and 300 sec conditions. Thereafter, shFcRn was prepared at 2 μg/mL, 250 μL using an acetate buffer (pH 5.5), and immobilization was performed while flowing at 30 μL/min. The reaction was stopped when the immobilization level corresponded to 200 RU to 300 RU. Thereafter, deactivation was performed using ethanolamine at 30 μL/min, 300 sec. […] Sample dilution was performed using 1×PBST (pH 7.4) or 1×PBST (pH 6.0) buffer depending on the analysis pH. In the sample analysis conditions, association was carried out by reaction at 50 μL/min, 200 sec, and dissociation was carried out by reaction at 50 μL/min, 600 sec. Thereafter, reaction was carried out using a glycine buffer (pH 2.0) at 100 μL/min, 18 sec to perform regeneration. For kinetic analysis, samples were prepared and reacted once in three cells to which shFcRn was immobilized. Then three kinetic values were obtained, and then an average KD value was measured. When analyzing reaction signals, interspot-referencing and signals in which only buffer was analyzed were used for a double-referencing.
row,Kd [nM],Binder
1,0.14,B1
2,0.32,B2
3,0.18,B3
4,0.21,B4
5,0.21,B5
6,0.14,B6
7,0.12,B7
8,0.18,B8
9,0.1,B9

# Target: T1, shFcRn (soluble human FcRn)
# Test: SPR, hFcRn immobilized on chip, pH 7.4
# Protocol: as §1, §2
row,Kd [nM],Binder
1,0.27,B10
2,0.28,B1
3,0.36,B2
4,0.21,B3
5,0.32,B4
6,0.3,B5
7,0.28,B6
8,0.12,B7
9,0.3,B8
10,0.2,B9

# Target: T2, hFcRn on hFcRn-expressing HEK293 cells (human, UniProt P55899 24-365; P61769 21-119)
# T2 construct: whole, on cells; also called hFcRn HEK293
# Test: FACS on hFcRn HEK293 cells, 10 nM antibody, pH 6.0
# Protocol: (§3) The analysis of hFcRn binding using FACS was carried out under two conditions of pH 6.0 and pH 7.4. hFcRn-expressing 1TEK293 (hFcRn HEK293) cells were diluted with the reaction buffer (0.0500 BSA in PBS, pH 6.0 or pH 7.4) and prepared in duplicate in a 96 well plate at 1×10⁵ cells for each sample. In addition, each antibody sample was diluted with the reaction buffer to 10 nM, and then put into a 96 well plate, and incubated at 4° C. for 90 minutes. Thereafter, the plate was centrifuged to remove the supernatant, and then Alexa488-goat anti-hIgG Ab (1:200) was added thereto, and again incubated at 4° C. for 90 minutes. After the reaction was completed, it was centrifuged to remove the supernatant, and 200 μL of the reaction buffer was added to resuspend the cell pellet, and then the MFI value was measured in a FACS instrument.
row,MFI [MFI],Binder
1,2720,B10
2,2580,B1
3,2640,B2
4,2770,B3
5,2600,B4
6,2390,B5
7,2830,B6
8,2720,B7
9,2430,B8
10,2500,B9

# Target: T2, hFcRn on hFcRn-expressing HEK293 cells
# Test: FACS on hFcRn HEK293 cells, 10 nM antibody, pH 7.4
# Protocol: as §3
row,MFI [MFI],Binder
1,6150,B10
2,6320,B1
3,6470,B2
4,6940,B3
5,6730,B4
6,5860,B5
7,6760,B6
8,6460,B7
9,6030,B8
10,6200,B9

# Target: T1, shFcRn (soluble human FcRn)
# Test: SPR, shFcRn immobilized on chip, antibody as analyte, pH 6.0;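 also: kinetics fitted with a 1:1 Langmuir model, association 200 s and dissociation 600 s, samples diluted in PBST, double-referenced signals, values averaged across three shFcRn-coated cells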
# Protocol: as §1, §2
Kd [nM],koff [s⁻¹],kon [M⁻¹ s⁻¹],Binder
0.116,,,B10
0.19,0.000486,2.56e+06,B1
0.275,0.000575,2.09e+06,B2
0.181,0.000549,3.02e+06,B3
0.2,0.000556,2.77e+06,B4
0.264,0.000522,1.98e+06,B5
0.158,0.000477,3.02e+06,B6
0.129,0.000463,3.58e+06,B7
0.206,0.000552,2.67e+06,B8
0.149,0.000433,2.91e+06,B9

# Target: T1, shFcRn (soluble human FcRn)
# Test: SPR, shFcRn immobilized on chip, antibody as analyte, pH 7.4;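 also: kinetics fitted with a 1:1 Langmuir model, association 200 s and dissociation 600 s in PBST, double-referenced against buffer-only and interspot signals, values averaged over repeated runs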
# Protocol: as §1, §2
Kd [nM],koff [s⁻¹],kon [M⁻¹ s⁻¹],Binder
0.294,,,B10
0.262,0.000487,1.86e+06,B1
0.209,0.000499,2.38e+06,B3
0.236,0.000444,1.88e+06,B4
0.381,0.000647,1.7e+06,B5
0.218,0.000496,2.27e+06,B6
0.122,0.000392,3.22e+06,B7
0.209,0.000499,2.39e+06,B8
0.207,0.000435,2.1e+06,B9

# Target: T2, hFcRn on hFcRn-expressing HEK293 cells
# Test: FACS on hFcRn HEK293 cells, 10 nM antibody, pH 6.0, high concentration sample
# Protocol: as §3
row,MFI [MFI],Binder
1,2950,B10
2,3450,B1
3,3240,B2
4,3390,B3
5,3330,B4
6,3020,B5
7,3130,B6
8,3270,B7
9,3410,B9

# Target: T2, hFcRn on hFcRn-expressing HEK293 cells
# Test: FACS on hFcRn HEK293 cells, 10 nM antibody, pH 7.4, high concentration sample
# Protocol: as §3
row,MFI [MFI],Binder
1,7160,B10
2,6570,B1
3,7910,B2
4,7700,B3
5,7940,B4
6,7080,B5
7,7060,B6
8,6730,B7
9,7000,B9

# Target: T2, hFcRn on hFcRn-expressing HEK293 cells
# Test: FACS on hFcRn HEK293 cells, pH 6.0; head prints 'FACS binding (EC50, nM)', taken as blocking of competitor Alexa488-hIgG1 (Example 4.5)
# Protocol: (§4) 1×10⁷ hFcRn HEK293 cells were seeded into a T75 flask and cultured for 24 hours. After culturing, the cells were removed and placed in a 96 well plate at 1×10⁵ cells for each sample in duplicate. […] After the reaction was completed, it was centrifuged to remove the supernatant. 200 μL of the reaction buffer was added to resuspend the cell pellet, and then the MFI value was measured in a FACS instrument.
row,EC50 [nM],Binder
1,1.83,B10
2,1.36,B1
3,1.14,B2
4,1.65,B3
5,1.38,B4
6,1.3,B5
7,1.47,B6
8,1.44,B7
9,1.11,B8
10,1.27,B9

# Target: T2, hFcRn on hFcRn-expressing HEK293 cells
# Test: FACS on hFcRn HEK293 cells, pH 6.0, high concentration sample; head prints 'FACS binding (EC50, nM)', taken as blocking of competitor Alexa488-hIgG1 (Example 5.5)
# Protocol: as §4
# The evaluation of hFcRn blocking was performed at 0.1 nM, 1 nM, 10 nM, and 100 nM using FACS.
row,EC50 [nM],Binder
1,0.91,B10
2,0.62,B1
3,0.62,B2
4,0.69,B3
5,0.66,B4
6,0.71,B5
7,0.6,B6
8,0.69,B7
9,0.54,B9
